Data from patent US20230183305A1, “KERATIN BD-11, PREPARATION METHOD THEREFOR AND PHARMACEUTICAL COMPOSITION AND USE THEREOF” (INSTITUTE OF MATERIA MEDICA, CHINESE ACADEMY OF MEDICAL …, priority 2019, published 2023).

Assays:
[1] = test system: yeast-induced fever model in SD rats; assay: Yeast-induced fever model in SD rats; format: in vivo, rat; conditions: for Body temperature 2 hours after modeling: 2 h after 20% yeast s.c.; for Body temperature 2 hours after modeling / Body temperature 4 hours after modeling / Body temperature 6 hours after modeling / Body temperature 8 hours after modeling: n=8; for Body temperature 4 hours after modeling: 4 h after 20% yeast s.c.; for Body temperature 6 hours after modeling: 6 h after 20% yeast s.c.; for Body temperature 8 hours after modeling: 8 h after 20% yeast s.c.
Experimental: • Animals: 230-260 grams of male SD rats;; • Drugs: yeast (OXOID LP0021), aspirin (SIGMA A2093), protein BD-11; • Instruments: electronic balance (SARTORIUS BP121S type), electronic clinical thermometer (CITIZEN CT-513W type).
Experiment grouping: • Normal control group; • Model group: yeast fever model; • Positive control group: Aspirin 300 mg/kg group; • Protein BD-11, 10 mg/kg group, 50 mg/kg group.
Preparation of experimental animals: After the experimental animals adapt to the experimental environment (temperature 22° C.±2° C., relative humidity 50%±2%) for 1 day. Pre-adaptation to measure rectal temperature at 8:00 and 15:00, rats were fasted and water was taken freely 12 h before experiment, and let the animal to empty its feces before measuring the rectal temperature. Apply petroleum jelly to the electronic thermometer probe before each temperature measurement. Insert the rat rectum 2 cm (can be marked at 2 cm to ensure that the depth of each insertion is consistent), and record the body temperature after the reading is stable.
Subcutaneous injection of dry yeast to replicate rat fever model: The body temperature of the rats was measured before modeling. Qualified rats with a body temperature of 36.2-37.3° C. were selected and randomly divided into groups with 8 rats in each group. After oral administration of aspirin and different doses of protein BD-11, 20% yeast suspension (10 ml/kg) was injected subcutaneously immediately, and the normal control group was injected intraperitoneally with an equal volume of normal saline. The body temperatures of the rats were monitored after 2 hours for a total of 8 hours.
According to the body temperature measured at each time point on the day of the experiment, calculate the mean, standard deviation and standard error of the body temperature of each group of rats. The data of each group was compared with TTEST, and P<0.05 was considered as a significant difference.
Immediately after oral administration of aspirin (300 mg/kg), protein BD-11 (10 mg/kg, 50 mg/kg), subcutaneous injection of 20% yeast was performed to establish a model. The animal body temperature was monitored at 2 hours, 4 hours, 6 hours, and 8 hours after modeling.

[2] = test system: PTZ-induced epilepsy in ICR mice; assay: Pentylenetetrazole (PTZ) induced epilepsy in mice; format: in vivo, mouse; parameters: mortality rate: unit not given here; conditions: for Cases of deaths / Grade IV seizure rate / mortality rate / Cases of Grade IV: PTZ 65 mg/kg i.p., 10 mice; for Cases of Grade IV: 15 min observation; for Grade III seizure incubation period / Grade IV seizure incubation period: mean±SEM; for Grade IV seizure incubation period: no Grade IV recorded as maximum 900 s
Experimental: • Animals: male ICR mice; • Medicines: Pentylenetetrazol (PTZ), Retigabine, Protein BD-11.
Experiment grouping: • Model group; • Retigabine 60 mg/kg group; • Protein BD-11, 50 mg/kg group, 200 mg/kg group;
The drug was administered once in the afternoon the day before modeling, On the day of modeling, PTZ-65 mg/kg (modeling agent) was injected intraperitoneal 1 hour after the test drug was administered intragastrically, and the positive drug can be administered once half an hour before modeling. Continue to observe for 15 minutes after injection of PTZ.
Observation index: ①Seizure situation: the time of seizures from Grade III to […]; ②Death situation
Seizure grade: Refer to Racine grading standard: Grade 0: No response; Grade I: manifested as twitching of facial muscles or the corners of the mouth; Grade II: can nod; Grade III: twitching of one limb; Grade IV: rigidity or body twitching; Grade V: generalized epilepsy (generalized tonic seizures).
Count the cases of seizures and deaths in each group of mice in the experiment; Grade III and IV incubation period. The incubation period of mice that have not attacked to Grade IV is recorded as the maximum of 900 seconds. Chi-square test was used for statistics of the number of cases. Calculate the mean and standard error of the incubation period. Use TTEST to compare the model group with other groups, and P<0.05 is considered as a significant difference.

[3] = test system: ammonia water induced cough in ICR mice; assay: Antitussive test, cough induced by ammonia water in mice; format: in vivo, mouse; conditions: for Incubation period (cough): 10% ammonia water 10 s; for Incubation period (cough) / Number of coughs: X±SEM, n=9; for Number of coughs: within 2 minutes
Experimental: • Animals: male ICR mice; • Drugs and reagents: dextromethorphan hydrobromide, ammonia water, 0.2% CMC-Na, protein BD-11; • Apparatus: Compressed nebulizer (403T type), balance (XS105DU type).
Experiment grouping: • Solvent control group; • Dextromethorphan 15 mg/kg group; • Protein BD-11, 20 mg/kg group, 50 mg/kg group.
Dextromethorphan and different doses of protein BD-11 (administration volume 10 ml/kg) were given orally in groups, and the solvent control group was given the same volume of distilled water. One hour later, mice were put into a sealed box and atomized 10% ammonia water for 10 seconds, and then observed and recorded the incubation period of cough in mice and the number of coughs in 2 minutes.
Record the time point of oral administration, the time point of atomization experiment, the incubation period of mice cough and the number of coughs within 2 minutes, respectively. The incubation period of cough refers to the number of seconds from the start of the atomization of ammonia to the occurrence of cough. The performance of coughing in mice is based on contraction of their abdominal muscles (breast contraction) and opening their mouths at the same time. Calculate the mean and standard error of each group of data, and use TTEST to compare the model group with other groups, and P<0.05 is considered as a significant difference.
Give dextromethorphan (15 mg/kg) and different doses of protein BD-11 (20 mg/kg, 50 mg/kg) in advance, One hour later, the mice were put into a sealed box and atomized 10% ammonia water for 10 seconds, and then the mice were observed and recorded the incubation period of coughing and the number of coughs within 2 minutes.

[4] = BD-11 50 mg/kg dose group, P<0.05

B1: BD-11: recombinant keratin, amino acid sequence SEQ ID NO:1, expressed in E. coli, band around 59 kD; Example 4 batch tested (protein, listed as Bos taurus)
chain: MSRQSTITFQTSSRRGFSTASATTPATSRSRFSSASVTHSPAGSGGLGRISGFGSRSLYNLGGTKRVSISGCGSNFRSGFGGRASSGFGVSGGFGYGGGIGGGHGGCGFSVCPPGGIQEVTVNQSLLTPLNLQIDPNIQRVRKEEREQIKTLNNKFASFIDKVRFLEQQNKVLETKWSLLQEQGTRTVRQSLEPFFEAYITDLRRQLDSITTERGRLDAELRTMQDVVEDFKVRYEDEINKRTAAENEFVALKKDVDAAYLNKVDLEAKANSLTDEINFLQMLFEAELCQMQTRVSDTSVVLSMDNNRSLDLDSIIAEVKAQYEEIANRSRAEAESWYQTKYEELQVTAGQHGDDLRNTKQEISETNRMIQRLRAEIDNVKKQCASLQTAIADAEQRGELALKDARAKLVDLEEALQKSKQDMARLLREYQELMNIKLALDVEIATYRKLLEGEECRLSGEGVSPVNISVVTSTVSSGYGGGSSIGSGSLGLSGGSGCSFMTSGGHSLGGSSFSNSSSRGLGGSGSSFKFVSTTSSSRKSYKH
[1]; 2, 4, 6 and 8 hours after modeling, dose not given
  Effect on increase in body temperature (summary): significantly inhibit the increase in body temperature
[1]; BD-11 10 mg/kg dose group, most time points P<0.05 vs model group
  Effect on the increase in body temperature of model rats: strong effect
[1]; BD-11 10 mg/kg oral
  Body temperature 2 hours after modeling: 36.7±0.1 °C
  Body temperature 4 hours after modeling: 37.0±0.1 °C
  Body temperature 6 hours after modeling: 37.4±0.1 °C
  Body temperature 8 hours after modeling: 37.3 ±0.1 °C
[1]; BD-11 50 mg/kg oral
  Body temperature 2 hours after modeling: 36.9 ± 0.2 °C
  Body temperature 4 hours after modeling: 37.4 ± 0.1 °C
  Body temperature 6 hours after modeling: 37.5 ± 0.1 °C
  Body temperature 8 hours after modeling: 37.4 ±0.1 °C
[1]; different doses of BD-11 (10, 50 mg/kg oral), after modeling
  Effect on the increase in body temperature of model rats: can inhibit the increase in body temperature of model rats to varying degrees
[2]; BD-11 50 mg/kg intragastric
  Cases of deaths: 0
  Grade IV seizure rate: 90%
  mortality rate: 0
  Cases of Grade IV: 9
[2]; BD-11 50 mg/kg, PTZ model
  Grade III seizure incubation period: 68 ± 5 s
  Grade IV seizure incubation period: 203 ± 81 s
[2]; BD-11 200 mg/kg dose group, PTZ model
  Incubation period of Grade III epilepsy, comparison with model group: significantly different from the model group
[2]; BD-11 200 mg/kg intragastric
  Cases of deaths: 0
  Grade IV seizure rate: 60%
  mortality rate: 0
  Cases of Grade IV: 6
[2]; BD-11 200 mg/kg, PTZ model
  Grade III seizure incubation period: 94 ± 12 s
  Grade IV seizure incubation period: 428 ± 130 s
[3]; BD-11 20 mg/kg oral
  Incubation period (cough): 30.0 ± 3.2 s
  Number of coughs: 61.8±4.7
[3]; [4]
  Cough incubation period vs solvent control group: significant improvement
  Number of coughs vs solvent control group: significant improvement effect
[3]; BD-11 50 mg/kg oral
  Incubation period (cough): 35.8 ± 2.0 s
  Number of coughs: 50.0±4.6
[3]; dose not given
  Effect on cough incubation period (summary): prolong the incubation period
  Effect on number of coughs (summary): significantly reduce the number of coughs
